In US8445655, “Functional nucleic acid ligands to fluorescent proteins” (Cornell Research Foundation, Inc.):

B1: AP2 (ssRNA)
RNA: GGGAGCACGAUUCCAUGCAAUUGUCGAGUUGUUAGCAGCAGCUUGCAUAUUGAGUCGUGGCGAAUUGGGUGGGGAAAGUCCUAAAAAGAGGGCCACCACAGAGGUUUGUACCCAUACUACAAGCUUCUGGACUCGGU
B2: AP4 (ssRNA)
RNA: GGGAGCACGAUUCCAUGAUUCUCGUAUCAAGGAAGGGUUAUGAGAUUUAGGUAAACGUGGCGAAUUGGGUGGGGAAAGUCCUAAAAAGAGGGCCACCACAGAGGCUUGUAAUCGAUGUUACUAUAGAGGGACACGACUACAAGCUUCUGGACUCGGU
B3: AP6 (ssRNA)
RNA: GGGAGCACGAUUCCAUUGGAUGCCACCGCGACUACGGUUAGUAGGCAUUCUGAGUCGUGGCGAAUUGGGUGGGGAAAGUCCUGAAAAGAGGGCCACCACAGAGGCUCAAACUGGACGUUAAUGACGUUUCGGUUCAGUACAAGCUUCUGGACUCGGU

The binders below were run against GFP (wild-type green fluorescent protein) (Aequorea victoria, UniProt P42212 P42212:1-238) (assay: filter; higher affinity than G16). Details: tags: His-tag (His-tagged GFP used on Ni beads in selection).

Binding result, binds:
B1
B2
B3
